Experimental findings from patent US7115711 (GENERAL HOSPITAL, dated 2006) are described below.

One test deals with T1, Human RXRα protein (human, UniProt P19793 1-462, limits assumed).
T1 construct: Used in the gel shifts
T1 sequence (looked up): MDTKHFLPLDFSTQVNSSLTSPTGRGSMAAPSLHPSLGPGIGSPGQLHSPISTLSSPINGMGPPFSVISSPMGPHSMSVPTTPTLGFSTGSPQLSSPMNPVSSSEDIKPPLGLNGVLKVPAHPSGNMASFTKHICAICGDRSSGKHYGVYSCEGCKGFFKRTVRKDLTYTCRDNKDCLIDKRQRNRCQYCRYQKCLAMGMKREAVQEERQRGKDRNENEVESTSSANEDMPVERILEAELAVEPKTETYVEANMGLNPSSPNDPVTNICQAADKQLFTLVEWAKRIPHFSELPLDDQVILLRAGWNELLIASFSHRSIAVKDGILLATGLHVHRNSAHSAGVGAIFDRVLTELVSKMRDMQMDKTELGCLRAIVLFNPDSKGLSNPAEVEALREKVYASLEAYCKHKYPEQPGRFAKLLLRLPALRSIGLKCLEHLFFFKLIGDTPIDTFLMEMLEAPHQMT
The test can be described thus: gel shift of in vitro translated RIP with E. coli-expressed RXRα on labeled βRARE; the complex with RXR is seen on DNA. The protocol:
The binding of the RIP14-2 isoform to this element was weaker than that of RIP14-1 when similar amounts of RIP14 proteins were used. […] Several other DNA elements were tested in the gel shift assay, including the retinoic acid response element from the promoter of the human RARβ2 isoform (βRARE) (de The et al., Nature 343:177–180, 1990). In the presence of RXR, the βRARE was bound by both the RIP14 isoforms and RIP15 (FIG. 8, panel B). Again, the binding of the RIP14-2/RXR heterodimer was weaker than the RIP14-1/RXR heterodimer when a similar amount of RIP14 proteins were used (FIG. 8, panel B, lanes 10 and 14).
RIP14 and RIP15 proteins were produced by in vitro translation (Promega TNT, Madison, Wis.) using expression vectors containing the RIP genes following a T7 promoter. To generate full length RIP14-2 constructs, fragments from RIP14-1 clone No. 15 containing regions from the middle of the E domain to the 3' end replaced the corresponding regions of RIP14-2 Clones No. 3 or 12, respectively. Sequences were confirmed by DNA sequencing. Human RXRα protein was expressed in E. coli using a bacterial expression vector based on the bacteriophage T7 promoter (Carter et al., Mol. Cell. Biol. in press., 1994). […]

Test [1] addresses T2, LexA-RXR (bacterial; human, UniProt P0A7C2 1-202; P19793 196-462, limits assumed).
T2 construct: also called Lex fusion RXR
T2 sequence (looked up): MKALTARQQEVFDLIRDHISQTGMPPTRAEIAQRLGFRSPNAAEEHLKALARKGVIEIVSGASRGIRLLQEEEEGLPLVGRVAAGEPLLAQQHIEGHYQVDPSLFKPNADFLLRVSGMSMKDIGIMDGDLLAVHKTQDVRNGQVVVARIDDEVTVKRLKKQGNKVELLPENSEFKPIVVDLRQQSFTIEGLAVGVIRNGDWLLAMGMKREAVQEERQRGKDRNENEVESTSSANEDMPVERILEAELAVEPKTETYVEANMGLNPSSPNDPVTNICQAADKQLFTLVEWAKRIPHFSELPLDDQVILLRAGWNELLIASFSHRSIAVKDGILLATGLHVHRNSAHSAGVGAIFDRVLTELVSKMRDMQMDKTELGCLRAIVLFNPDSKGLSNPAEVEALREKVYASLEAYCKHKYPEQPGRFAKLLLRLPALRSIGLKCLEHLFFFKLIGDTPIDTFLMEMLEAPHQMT
The test is described as follows: yeast interaction trap screen; clones showing specific interaction with LexA-RXR; all six clones start at amino acid 132. As to the method:
(§1) From 3×10^6 primary yeast transformants, a number of β-gal expressing colonies were identified in two independent screens carried out in the presence or absence of 9-cis-RA. Since expression of the B42-cDNA fusion proteins was induced by growth on galactose, candidates obtained from each condition were tested for galactose-dependent expression of both β-gal and LEU2, in the presence or absence of 9-cis-RA, using appropriate indicator plates (see below).
(§2) Candidates showing specific interaction with LexA-RXR were sequenced across the B42 fusion junction using an appropriate vector primer, and additional sequence was determined. The deduced amino acid sequences were compared to those in the GenBank and EMBL databases using the GCG (Devereux et al., Nucleic Acids Res. 12:387–395, 1984) and BLAST programs (Altschul et al., J. Mol. Biol. 215:403–410, 1990). […] All of these clones included intact ligand binding domains, as expected from the fact that the major heterodimerization function lies within that domain. For PPAR (Issemann et al., Nature 347:645–650, 1990), three clones started at amino acid 84, just N-terminal to the DNA binding (C) domain, four others started at 91, within the C domain, and one at 170, just past the C domain. For RAR (Leroy et al., EMBO J. 10:59–69), all six clones started at amino acid 132, within the C domain.

Test [2] concerns the target T2, LexA-RXR. The test is described as follows: yeast interaction trap screen; clones showing specific interaction with LexA-RXR; one clone starting at amino acid 170. The protocol: as §1, §2
In a further test the target is T3, LexA-TR (bacterial; rat, UniProt P0A7C2 1-202; P18113 170-461, limits assumed).
T3 construct: also called Lex fusion TR
T3 sequence (looked up): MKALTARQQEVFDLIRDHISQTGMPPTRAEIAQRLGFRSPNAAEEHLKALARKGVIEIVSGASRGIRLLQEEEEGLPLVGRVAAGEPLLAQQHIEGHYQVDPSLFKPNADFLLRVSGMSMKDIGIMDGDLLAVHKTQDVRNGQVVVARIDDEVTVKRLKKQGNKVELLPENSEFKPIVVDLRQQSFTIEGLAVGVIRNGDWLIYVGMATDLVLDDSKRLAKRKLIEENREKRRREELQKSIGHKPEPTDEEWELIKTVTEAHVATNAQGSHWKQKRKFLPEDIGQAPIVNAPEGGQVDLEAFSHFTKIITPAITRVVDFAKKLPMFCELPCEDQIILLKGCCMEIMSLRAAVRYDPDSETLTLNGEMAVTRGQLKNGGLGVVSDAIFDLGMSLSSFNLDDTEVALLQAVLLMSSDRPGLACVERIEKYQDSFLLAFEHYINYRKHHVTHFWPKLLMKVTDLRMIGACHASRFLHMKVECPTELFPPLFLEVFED
The test can be described thus: yeast interaction trap, X-gal plate, with T3; W = white (no interaction). As to the method: (§3) Interactions of the RIP clones with other superfamily members, including RAR, TR, the glucocorticoid receptor (GR), and MB67, an orphan isolated in this lab (Baes et al., Mol. Cell. Biol. 14:1544–1552, 1994) were also tested using a series of appropriate LexA fusions. In particular, the experiments shown in Table 1 were carried out as follows. Yeast transformants containing a lacZ reporter gene under the control of LexA binding sites and the indicated B42- and Lex-fusion protein expression vectors were transferred onto galactose-Ura⁻His⁻Trp⁻ plates containing X-gal and incubated for two days. Relative levels of β-galactosidase activity were estimated and are depicted as follows: B, blue (strong interaction); LB, light blue (weak interaction); W, white (no interaction); nt, not tested. At least three separate colonies were tested on the same plate for interaction. To test the effects of ligands, 100 µl of a 10^-6M solution of the appropriate ligand was spread onto plates just before inoculation of cells (9-cis-RA for RXR, T3 for TR, and all-trans-RA for RAR). For B42-PPAR, the plasmid isolated from the screening was used. Both full length and truncated RAR fusions to LexA were tested with identical results for all the B42 fusions except B42-110, which was tested only with the full length fusion.

The target of a further test is T4, LexA-MB67 (bacterial, UniProt P0A7C2 1-202; Q14994 76-348, limits assumed).
T4 construct: Made by PCR, 'analogous' to LexA-RXR and LexA-TR; also called Lex fusion MB67
T4 sequence (looked up): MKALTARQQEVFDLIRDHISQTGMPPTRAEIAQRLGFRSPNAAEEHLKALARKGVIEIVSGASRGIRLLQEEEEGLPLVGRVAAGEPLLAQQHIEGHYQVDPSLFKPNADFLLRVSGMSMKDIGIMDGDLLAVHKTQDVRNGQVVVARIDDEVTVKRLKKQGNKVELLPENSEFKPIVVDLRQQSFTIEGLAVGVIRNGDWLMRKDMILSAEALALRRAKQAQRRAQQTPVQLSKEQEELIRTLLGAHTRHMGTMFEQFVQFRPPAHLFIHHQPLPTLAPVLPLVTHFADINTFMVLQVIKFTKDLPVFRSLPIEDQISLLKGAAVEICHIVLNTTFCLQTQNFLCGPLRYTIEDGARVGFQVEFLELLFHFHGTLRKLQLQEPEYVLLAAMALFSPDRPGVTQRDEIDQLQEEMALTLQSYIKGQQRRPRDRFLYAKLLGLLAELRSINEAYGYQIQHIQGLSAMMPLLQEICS
The test is described as follows: yeast interaction trap, X-gal plate; W = white (no interaction). As to the method:
as §3

B1: RIP15 (receptor)
chain: MSSPTSSLDTPVPGNGSPQPSTSATSPTIKEEGQETDPPPGSEGSSSAYIVVILEPEDEPERKRKKGPAPKMLGHELCRVCGDKASGFHYNVLSCEGCKGFFRRSVVHGGAGRYACRGSGTCQMDAFMRRKCQLCRLRKCKEAGMREQCVLSEEQIRKKRIQKQQQQQPPPPSEPAASSSGRPAASPGTSEASSQGSGEGEGIQLTAAQELMIQQLVAAQLQCNKRSFSDQPKVTPWPLGADPQSRDARQQRFAHFTELAIISVQEIVDFAKQVPGFLQLGREDQIALLKASTIEIMLLQTARRYNHETECITFLKDFTYSKDDFHRAGLQVEFINPIFEFSRAMRRLGLDDAEYALLIAINIFSADRPNVQEPSRVEALQQPYVEALLSYTRIKRPQDQLRFPRMLMKLVSLRTLSSVHSEQVFALRLQDKKLPPLLSEIWDVHE
notes: Intact 446 amino acid protein; It was translated in vitro for gel shifts and expressed from a CDM vector in HepG2 cells
As for B1, the binding result in the test with Human RXRα protein is on record as “binds”.

B2: B42-RAR (other, mouse, UniProt P11416 132-462, looked up, not shown: large carriers)
chain: INKVTRNRCQYCRLQKCFDVGMSKESVRNDRNKKKKEAPKPECSESYTLTPEVGELIEKVRKAHQETFPALCQLGKYTTNNSSEQRVSLDIDLWDKFSELSTKCIIKTVEFAKQLPGFTTLTIADQITLLKAACLDILILRICTRYTPEQDTMTFSDGLTLNRTQMHNAGFGPLTDLVFAFANQLLPLEMDDAETGLLSAICLICGDRQDLEQPDKVDMLQEPLLEALKVYVRKRRPSRPHMFPKMLMKITDLRSISAKGAERVITLKMEIPGSMPPLIQEMLENSEGLDTLSGQSGGGTRDGGGLAPPPGSCSPSLSPSSHRSSPATQSP
notes: range 132-C-terminus; All six isolated clones start at amino acid 132; also called RARα (six clones)
With B2, the binding result in the test with LexA-RXR [1] was “binds”.

B3: B42-PPAR clone starting at amino acid 170 (other, mouse, UniProt P23204 170-468, looked up, not shown: large carriers)
chain: AIRFGRMPRSEKAKLKAEILTCEHDLKDSETADLKSLGKRIHEAYLKNFNMNKVKARVILAGKTSNNPPFVIHDMETLCMAEKTLVAKMVANGVEDKEAEVRFFHCCQCMSVETVTELTEFAKAIPGFANLDLNDQVTLLKYGVYEAIFTMLSSLMNKDGMLIAYGNGFITREFLKNLRKPFCDIMEPKFDFAMKFNALELDDSDISLFVAAIICCGDRPGLLNIGYIEKLQEGIVHVLKLHLQSNHPDDTFLFPKLLQKMVDLRQLVTEHAQLVQVIKKTESDAALHPLLQEIYRDMY
notes: range 170-C-terminus; Only the start is stated; also called PPAR (one clone)
In the case of B3, in the test with LexA-RXR [2], the binding result is “binds”.

B4: B42-RIP15 (other, not shown: large carriers)
chain: EEQIRKKRIQKQQQQQPPPPSEPAASSSGRPAASPGTSEASSQGSGEGEGIQLTAAQELMIQQLVAAQLQCNKRSFSDQPKVTPWPLGADPQSRDARQQRFAHFTELAIISVQEIVDFAKQVPGFLQLGREDQIALLKASTIEIMLLQTARRYNHETECITFLKDFTYSKDDFHRAGLQVEFINPIFEFSRAMRRLGLDDAEYALLIAINIFSADRPNVQEPSRVEALQQPYVEALLSYTRIKRPQDQLRFPRMLMKLVSLRTLSSVHSEQVFALRLQDKKLPPLLSEIWDVHE
notes: Original yeast clone; Its B42 fusion junction is near the beginning of the hinge (D) domain, with no residue number stated; also called B42 fusion 15; RIP15 chimera
Consider B4, for which the binding result in the test with LexA-TR and with LexA-MB67 was “no binding” each time.
